Data as given in US20210079102A1 (DRAGONFLY THERAPEUTICS, published 2021).

How the values were obtained:
[1] = biological target: T1, CD33 expressed on MV4-11 human AML cells (human, UniProt P20138 18-364); assay: flow cytometry on MV4-11 cells, FOB of MFI
T1 construct: whole, on cells; also called cell-expressed CD33
Protocol: Human AML cell line MV4-11 expressing CD33 was used to assay the binding of TriNKETs to the tumor associated antigen. TriNKETs and the parental anti-CD33 monoclonal antibody were incubated with the cells, and the binding was detected using fluorophore-conjugated anti-human IgG secondary antibodies. Cells were analyzed by flow cytometry, and fold-over-background (FOB) was calculated using the mean fluorescence intensity (MFI) from TriNKETs and the parental monoclonal anti-CD33 antibody normalized to secondary antibody controls.

[2] = biological target: T2, human NKG2D expressed on EL4 cells (human, UniProt P26718 1-216); assay: flow cytometry on EL4 cells expressing human NKG2D, anti-human IgG secondary, FOB of MFI
T2 construct: whole, on cells; also called extracellular NKG2D expressed on EL4 cells; cell-expressed human NKG2D
T2 sequence (looked up): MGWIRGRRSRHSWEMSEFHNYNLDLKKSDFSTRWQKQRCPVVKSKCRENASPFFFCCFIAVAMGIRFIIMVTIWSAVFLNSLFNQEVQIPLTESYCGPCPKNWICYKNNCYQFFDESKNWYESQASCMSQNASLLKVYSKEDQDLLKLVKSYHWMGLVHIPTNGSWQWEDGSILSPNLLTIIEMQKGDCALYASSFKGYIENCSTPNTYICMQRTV
Protocol: EL4 mouse lymphoma cell lines were engineered to express human NKG2D. […] The binding of the multi-specific binding proteins to NKG2D was detected using fluorophore-conjugated anti-human IgG secondary antibodies. Cells were analyzed by flow cytometry, and fold-over-background (FOB) was calculated using the mean fluorescence intensity (MFI) of NKG2D-expressing cells compared to parental EL4 cells.

[3] = biological target: T3, Tyrp-1 on B16F10 melanoma cells (UniProt P07147 25-537, limits assumed); assay: flow cytometry on B16F10 tumor cells, 60 ug/mL with four-fold dilutions, goat anti-mouse PE secondary
T3 construct: whole, on cells; also called Tyrp-1-positive B16F10 melanoma cells
Protocol: (§1) 60 μg/mL of indicated antibodies with four-fold dilutions were added to 2×10⁵ B16F10 tumor cells (FIG. 58A) or EL4-mNKG2D cells (FIG. 58B). Binding was assessed using a goat anti-mouse PE secondary antibody followed by flow cytometric analysis.

[4] = biological target: T4, murine NKG2D overexpressed on EL4 cells (EL4-mNKG2D) (mouse, UniProt O54709 1-232); assay: flow cytometry on EL4-mNKG2D cells, 60 ug/mL with four-fold dilutions, goat anti-mouse PE secondary
T4 construct: whole, on cells; also called EL4-mNKG2D cells
T4 sequence (looked up): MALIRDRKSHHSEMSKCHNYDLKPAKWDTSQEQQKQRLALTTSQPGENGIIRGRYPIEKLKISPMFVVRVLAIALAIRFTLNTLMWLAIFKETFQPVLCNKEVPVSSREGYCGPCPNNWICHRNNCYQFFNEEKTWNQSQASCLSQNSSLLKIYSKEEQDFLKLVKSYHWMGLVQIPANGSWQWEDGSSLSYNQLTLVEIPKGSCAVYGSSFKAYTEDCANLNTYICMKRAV
Protocol: as §1

T1 sequence (P20138 18-364): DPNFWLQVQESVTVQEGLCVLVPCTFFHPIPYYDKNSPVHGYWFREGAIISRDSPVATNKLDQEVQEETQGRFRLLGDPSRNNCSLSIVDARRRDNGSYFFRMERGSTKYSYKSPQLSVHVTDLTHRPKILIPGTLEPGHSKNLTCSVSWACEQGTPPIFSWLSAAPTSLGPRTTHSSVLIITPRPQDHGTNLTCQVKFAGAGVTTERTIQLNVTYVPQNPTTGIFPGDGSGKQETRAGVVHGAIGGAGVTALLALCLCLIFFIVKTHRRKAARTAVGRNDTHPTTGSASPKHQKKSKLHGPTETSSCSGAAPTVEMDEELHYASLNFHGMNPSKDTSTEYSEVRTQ

B1: CD33-TriNKET-C26 (ADI-28226 and a CD33-binding domain) (bispecific antibody, V domains shown)
VH 1: QVQLQQWGAGLLKPSETLSLTCAVYGGSFSGYYWSWIRQPPGKGLEWIGEIDHSGSTNYNPSLKSRVTISVDTSKNQFSLKLSSVTAADTAVYYCARARGPWSFDPWGQGTLVTVSS
VL 1: DIQMTQSPSTLSASVGDRVTITCRASQSISSWLAWYQQKPGKAPKLLIYKASSLESGVPSRFSGSGSGTEFTLTISSLQPDDFATYYCQQYGSFPITFGGGTKVEIK
VH 2: QVQLVQSGAEVKKPGASVKVSCKASGYTFTDYVVHWVRQAPGQGLEWMGYINPYNDGTKYNEKFKGRVTMTRDTSISTAYMELSRLRSDDTAVYYCARDYRYEVYGMDYWGQGTLVTVSS
VL 2: DIVLTQSPASLAVSPGQRATITCTASSSVNYIHWYQQKPGQPPKLLIYDTSKVASGVPARFSGSGSGTDFTLTINPVEANDTANYYCQQWRSYPLTFGQGTKLEIK
notes: also called C26-TriNKET-CD33
- binding result [1]: binds
- binding result [2]: binds

B2: parental anti-CD33 monoclonal antibody (antibody, V domains shown)
VH: QVQLVQSGAEVKKPGASVKVSCKASGYTFTDYVVHWVRQAPGQGLEWMGYINPYNDGTKYNEKFKGRVTMTRDTSISTAYMELSRLRSDDTAVYYCARDYRYEVYGMDYWGQGTLVTVSS
VL: DIVLTQSPASLAVSPGQRATITCTASSSVNYIHWYQQKPGQPPKLLIYDTSKVASGVPARFSGSGSGTDFTLTINPVEANDTANYYCQQWRSYPLTFGQGTKLEIK
notes: also called parental monoclonal anti-CD33 antibody; parental anti-CD33 antibody
- binding result [1]: binds

B3: mcFAE-C26.99 TriNKET (bispecific antibody, mouse IgG2c)
light 1: DIQMTQSPSTLSASVGDRVTITCRASQSISSWLAWYQQKPGKAPKLLIYKASSLESGVPSRFSGSGSGTEFTLTISSLQPDDFATYYCQQYGSFPITFGGGTKVEIKRADAAPTVSIFPPSSEQLTSGGASVVCFLNNFYPKDINVKWKIDGSERQNGVLNSWTDQDSKDSTYSMSSTLTLTKDEYERHNSYTCEATHKTSTSPIVKSFNRNEC
heavy 1: QVQLQQWGAGLLKPSETLSLTCAVYGGSFSGYYWSWIRQPPGKGLEWIGEIDHSGSTNYNPSLKSRVTISVDTSKNQFSLKLSSVTAADTAVYYCARARGPWSFDPWGQGTLVTVSSAKTTAPSVYPLAPVCGGTTGSSVTLGCLVKGYFPEPVTLTWNSGSLSSGVHTFPALLQSGLYTLSSSVTVTSNTWPSQTITCNVAHPASSTKVDKKIEPRVPITQNPCPPLKECPPCAAPDLLGGPSVFIFPPKIKDVLMISLSPMVTCVVVDVSEDDPDVQISWFVNNVEVHTAQTQTHREDYNSTLRVVSALPIQHQDWMSGKEFKCKVNNRALPSPIEKTISKPRGPVRAPQVYVLPPPAEEMTKKEFSLTCMIKGFLPAEIAVDWTSNGRTEQNYKNTATVLDSDGSYFMYSRLRVQKSTWERGSLFACSVVHEGLHNHLTTKTISRSLGK
light 2: DIQMSQSPASLSASVGETVTITCRASGNIYNYLAWYQQKQGKSPHLLVYDAKTLADGVPSRFSGSGSGTQYSLKISSLQTEDSGNYYCQHFWSLPFTFGSGTKLEIKRADAAPTVSIFPPSSEQLTSGGASVVCFLNNFYPKDINVKWKIDGSERQNGVLNSWTDQDSKDSTYSMSSTLTLTKDEYERHNSYTCEATHKTSTSPIVKSFNRNEC
heavy 2: EVQLQQSGAELVRPGALVKLSCKTSGFNIKDYFLHWVRQRPDQGLEWIGWINPDNGNTVYDPKFQGTASLTADTSSNTVYLQLSGLTSEDTAVYFCTRRDYTYEKAALDYWGQGASVIVSSAKTTAPSVYPLAPVCGGTTGSSVTLGCLVKGYFPEPVTLTWNSGSLSSGVHTFPALLQSGLYTLSSSVTVTSNTWPSQTITCNVAHPASSTKVDKKIEPRVPITQNPCPPLKECPPCAAPDLLGGPSVFIFPPKIKDVLMISLSPMVTCVVVDVSEDDPDVQISWFVNNVEVHTAQTQTHREDYNSTLRVVSALPIQHQDWMSGKEFKCKVNNRALPSPIEKTISKPRGPVRAPQVYVLPPPAEEMTKKEFSLTCMITGFLPAEIAVDWTSNGRTEQNYKNTATVLDSDGSYLMYSKLTVQKSTWERGSLFACSVVHEGLHNHLTTKTISRSLGK
notes: also called murine cFAE-C26.99 TriNKET; TA99 TriNKET (mcFAE-C26.99)
- binding result [3]: binds
- binding result [4]: binds
